The record followed here is patent US20240159758A1 (OPKO DIAGNOSTICS, published 2024).

In assay [1] the target is T1, Free prostate specific antigen (fPSA) (Homo sapiens (Human), UniProt P07288 25-261).
T1 construct: also called Free PSA
As to the kind of experiment: sandwich (noncompetitive) DELFIA immunoassay, capture probe. How it is done:
(§1) The concentrations of tPSA and fPSA are determined with commercial assays approved for use in human diagnostics by the FDA (Roche™ Cobas® instrument and Elecsys® assays). The concentrations of iPSA and hK2 are determined using a test developed to run on the PerkinElmer® AutoDELFIA® instrument.
(§2) The presence of iPSA and hK2 are detected by a sandwich (noncompetitive) immunoassay. The iPSA assay employs two distinct mouse monoclonal antibody products. The capture probe is a biotinylated, recombinant His₆-Cys-tagged Fab fragment of the monoclonal antibody 5A10 with specificity for fPSA (of which iPSA is a component). The tracer is a Europium-labelled monoclonal antibody 4D4, with specificity to iPSA and complexed PSA (PSA-ACT). In combination, the reagents are specific for iPSA. The hK2 assay employs five distinct mouse monoclonal antibody products. The capture probe is a biotinylated, F(ab)₂ fragment of 6H10 monoclonal antibody with specificity for hK2 and tPSA. […]
(§3) The signals obtained from the detection of iPSA and hK2 in the immunoassays are then compared to the signals obtained from the detection of a set of standards (e.g. the calibrator solutions) using the same iPSA and hK2 antibodies. […] The reporting range is defined by the limit of quantification (LoQ) at the low end and the highest calibrator at the high end. For the iPSA and hK2 assays, the LoQ was determined using CLSI EP-17A.

The target of assay [2] is T2, Intact prostate specific antigen (iPSA) (Homo sapiens (Human), UniProt P07288 25-261).
T2 construct: also called Intact PSA
T2 sequence (P07288 25-261 limits assumed): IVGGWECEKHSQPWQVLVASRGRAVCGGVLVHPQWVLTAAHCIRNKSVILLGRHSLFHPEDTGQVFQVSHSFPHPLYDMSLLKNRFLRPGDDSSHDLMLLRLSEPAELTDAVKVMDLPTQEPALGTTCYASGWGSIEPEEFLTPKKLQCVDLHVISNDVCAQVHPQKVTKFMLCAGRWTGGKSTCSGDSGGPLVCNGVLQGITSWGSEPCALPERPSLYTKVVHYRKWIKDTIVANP
The assay is described as above. The method, then:
as §1, §2, §3

T1 sequence (P07288 25-261 limits assumed): as above

B1: biotinylated, recombinant His6-Cys-tagged Fab fragment of the monoclonal antibody 5A10 (Fab, V domains shown)
VH: EVQLVESGPGILQPSQTLSLTCSFSGFSLSTTGMGVSWIRQPSGKGLEWLAHLYWDEDKRYNPSLKSRLTISEDSSRNQVFLKITSVGPADSATYYCARKGYYGYFDYWGQGTALTVSS
VL: DIVMTQSQKFMSTSVGDRVSVTCKASQNVNTDVAWYQQKPGQSPKALIFSTSYRSSGVPDRFTGSGSGTDFTLTITNVQSEDLAEYFCQQYSNYPLTFGAGTKVDLN
modifications: biotinylated (site not stated)
notes: Mouse monoclonal origin; also called Fab 5A10; 5A10 Fab
Take B1: the binding result in assay [1] and in assay [2] was “binds” each time.
